Measured values reported in patent publication US8487082B2, “Synthetic scFv analogue to the 6313/G2 (anti angiotensin II type 1 receptor) monoclonal antibody variable regions” (Queen Mary & Westfield College, priority 2008, dated 2013).
Read-outs that look alike come from different tables or passages of the source.

What was measured:
MCF7 cells = tested on: MCF7 cells
Protocol: Activation of caspases during apoptosis was determined using the Apo-ONE homogenous caspase-3/7 assay (Promega Corp, Southampton UK), according to the manufacturer's instructions. Briefly, cells were grown to 90% confluence and washed three times with sterile PBS. Cells were harvested using Trypsin/EDTA and counted. Cells (10^4 per well) were seeded into a 96 well plate and incubated with R6313/G2 at concentrations from 0.1 to 3 μM in the presence or absence of 100 nmol/L angiotensin II, total volume 150 μl, for 24 and 48 hours. After incubation, caspase-3/7 Z-DEVD-R110 substrate (100 μl) was added to each well. Blank wells contained reagent alone, and controls omitted the antibody and/or angiotensin II. Fluorescence was measured every 2 hours over an 8 hour period using a Fluostar Optima spectrofluorimeter (BMG Laboratories, Offenburg Germany), with an excitation wavelength of 485 nm and an emission wavelength of 535 nm.

MCF-7 cell xenografts = assay: In vivo xenograft assay; details: nu/nu mice, 13 nmol/kg
Protocol: Mice were injected s.c. on the right-flank, with 150 μl sterile PBS containing 7.5×10^6 MCF-7 cells. Tumour cells were allowed to grow for 4 weeks without hormone support, thereafter mice received weekly s.c. injections of 17β-oestradiol valerate (0.1 mg/Kg body weight), in sesame oil (Kasukabe et al., Breast Cancer Res. 7(6) R1097-110 (2005)) for a further 8 weeks. Animals were monitored daily for general health, and body weights were measured twice-weekly. Tumour size was measured 3 times per week with slide callipers, and volumes were calculated as (L×W^2)/2, where L and W are the major and minor diameters, respectively. Once tumour volumes reached 150 to 200 mm^3, mice were randomized to treatment and control groups of 8 to 10 per group. Mice were treated by subcutaneous injections of R6313/G2 in sterile PBS (0.1 ml) at doses of 0.4 mg/kg (13 nmol/kg), 0.8 mg/kg (27 nmol/Kg), and 1.36 mg/kg (45.3 nmol/kg) body weight, twice per day for seven days. Control mice received sterile PBS. […] Relative body weights (%) were calculated as (Wt/Wi)×100, where Wt is the body weight at any given time and Wi is the body weight at treatment initiation. Net tumour volume was calculated as Vt-Vi, where Vt is the tumour volume at any given time and Vi is the tumour volume at the start of treatment, and expressed as a percentage of Vi.

MCF-7 cells = assay: In vivo hollow fiber assay; parameters: species or system balb/c nu/nu mice
Protocol: (§1) Hollow Fiber procedures followed the method of Hollingshead. (Hollingshead et al Life Sci 57 131-41 (1995)).
(§2) Polyvinylidene difluoride (PVDF) hollow fibers (500 kDa cut-off, 1 mm inner diameter; Spectrum Europe B.V., Breda, Netherlands) were flushed through with 70% ethanol using a blunt 21 gauge needle and 10 ml syringe. Fibers were then immersed in 70% ethanol for 72 hours, flushed through again with 70% ethanol, then distilled water, and then autoclaved at 131° C. Finally, before loading cell suspensions, fibers were flushed through with RPMI 1640 culture medium. Cells (MCF-7, T47D, and MDA-MB-231) were introduced into fibers at densities of 2.5 to 3.0×10^6 cells/ml. Fibers were then heat-sealed at 2 cm intervals and placed in Petri dishes containing 3 ml of the cell appropriate medium.
(§3) Cell-loaded hollow fiber segments were incubated at 37° C. in culture medium overnight before implantation into pure strain 5-6 week old female balb/c nu/nu mice. Fibers were implanted into the animals under anaesthesia (2% Isofluorane). Three 2 cm fibers, each containing one of the cell lines MCF-7, T47D, or MDA-MB-231, were implanted at both subcutaneous (s.c.) and intraperitoneal (i.p.) sites into each animal. For i.p. implants, a small incision was made through the skin and musculature of the ventral abdominal wall. Fibers were placed into the peritoneal cavity and both incisions were closed with metallic suture clips (Harvard Instruments, Edenbridge UK). For s.c. implants, a small incision was made dorsally. The fibers were implanted to the left of the dorsal midline in a cranial direction. The small incision was closed with metallic suture clips.
(§4) Mice (n=5/group) with hollow fiber implants were treated with R6313/G2 (0.07 mg/kg (2.5 nmol/kg), and 0.7 mg/kg (25 nmol/kg) in 0.1 ml PBS, subcutaneously) twice per day for six days. Control animals (n=5) received vehicle alone. 24 hours after the last injection, animals were killed by cervical dislocation and the fibers were recovered and transferred to pre-warmed RPMI 1640 medium containing 20% FBS for 30 minutes.
(§5) Cell viability was measured using a modified MTT assay. Fibers were incubated in RPMI 1640 with 20% FBS containing 1 mg/ml MTT, and incubated at 37° C. under […], 5% CO2 for 4 hours. The reagent was aspirated, and 2 ml sterile filtered 2.5% protamine sulphate (0.9 g NaCl, 2.5 g protamine sulphate in 100 ml water) was added. Specimens were stored at 4° C. for a minimum of 24 hours in the dark to fix the formazan product. Fresh protamine sulphate (2.5%) was added and fibers were stored for a further 2 to 4 hours at 4° C. Each fiber was transferred to a well in a 24 well plate, cut in half and air-dried overnight, protected from light. Dimethyl sulphoxide (DMSO) (300 μl) was added to each well and the formazan product extracted. An aliquot (190 μl) from each well was transferred to a 96 well plate and absorbance read at 540 nm using a Multiskan Ascent photometric microplate reader (Thermo labsystem). Treated values were calculated as a percentage of the controls.

MDA-MB-231 cells = assay: In vivo hollow fiber assay; parameters: species or system balb/c nu/nu mice
Protocol: as §1, §2, §3, §4, §5

T47D cells [1] = assay: In vivo hollow fiber assay; parameters: species or system balb/c nu/nu mice; details: i.p. site, 0.7 mg/kg (25 nmol/kg) twice per day
Protocol: as §1, §2, §3, §4, §5

breast cancer cells = assay: Caspase-driven apoptosis (summary statement); assay type: cell-based
Excerpt: (§6) Cells were harvested using Trypsin/EDTA and counted.

T47D cells [2] = assay: Apoptosis - caspase-3/7 activity; assay type: cell-based
Excerpt: as §6

B1: R6313/G2: murine scFv analogue of the 6313/G2 anti-AT1 receptor monoclonal antibody variable domains, SEQ ID NO:15 (protein)
scFv: YAAQPAMAQVKLQQSGPELEKPGASVKISCKASGYSFTGYNMNWVKQSNGKSLEWIGNIDPYYGGTTYNQKFKGKATLTVDKSSSTAYMQLKSLTSEDSAVYYCAREVDYWGQGTTVTVSSGGGGSGGGGSGGGGSDIELTQSPASLAVSLGQRATISYRASKSVSTSGYSYMHWNQQKPGQPPRLLIYLVSNLESGVPARFSGSGSGTDFTLNIHPVEEEDAATYYCQHIRELTRSEGTKLEIKRAAAGAPVPY
modifications: 12D
- caspase-3/7 activity (MCF7 cells; MCF7, R6313/G2 alone): reduced caspase-3/7 activity
- caspase-3/7 activity (MCF7 cells; MCF7, in the presence of angiotensin II): dose dependently increased caspase-3/7 activity
- cancer cell growth, xenograft tumours (MCF-7 cell xenografts): significantly inhibited cancer cell growth
- cell survival in hollow fibers in vivo (MCF-7 cells; MCF7, i.p. site, 0.07 and 0.7 mg/kg (2.5 and 25 nmol/kg) twice per day): inhibited MCF7 cell survival
- cell survival in hollow fibers in vivo (MCF-7 cells; MCF-7, s.c. site): dose dependently inhibited cell survival
- cell survival in hollow fibers in vivo (MDA-MB-231 cells; MBA MB 231, i.p. site, 0.7 mg/kg (25 nmol/kg) twice per day): inhibited
- cell survival in hollow fibers in vivo (MDA-MB-231 cells; MDA MB 231, s.c. site, highest dose): inhibited at the highest dose
- cell survival in hollow fibers in vivo (T47D cells [1]): inhibited
- caspase-driven apoptosis (breast cancer cells; angiotensin II omitted): omission of angiotensin blocks its effects
- caspase-driven apoptosis (breast cancer cells; in the presence of up to 100 nmol angiotensin II per L): enhances caspase-driven apoptosis
- effect on angiotensin II inhibition of caspase-3/7 activity (T47D cells [2]; 100 nmol/L angiotensin II, 12 hours): inhibition was blocked
- caspase-3/7 activity (T47D cells [2]; R6313/G2 alone, 48 hours): dose-dependent increase of caspase-3/7 activity
